B1: STK38L (parent)
chain: RQLAYSTVGTPDYIAPEVFMQTGY
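Also: lentivirally expressed fusions sorted by FACS into six bins by GFP to DsRed ratio, PSI derived from sequencing read proportions per bin multiplied by bin number.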

This data set covers variants of B1. Nature of the data set: protein stability index of a GFP-peptide fusion (GPS, HEK-293T) (PSI 1-6); higher = more stable. Conditions: c terminus: a fixed tail appended.
As for RQLAYSTRGTPDYIAPEVFMQTGY [V8R], the protein stability index was 2.25.

As to RQLAYSTCGTPDYIAPEVFMQTGY [V8C], the protein stability index stood at 1.49. For the variant RQLAYSTNGTPDYIAPEVFMQTGY [V8N], the protein stability index stood at 2.41. For RQLAYSTQGTPDYIAPEVFMQTGY [V8Q] the value was 2.63; for RQLAYSTVGTPDYTAPEVFMQTGY [I14T], 2.69. Next, RQLAYSTVGTPDYPAPEVFMQTGY [I14P]: 2.39.

Take RQLAYSTVGTPDYNAPEVFMQTGY [I14N]: the protein stability index came to 2.95. Consider RQLAYSTVGTPDYEAPEVFMQTGY [I14E], for which the protein stability index stood at 2.92. For RQLAYSTVGTPDYCAPEVFMQTGY [I14C] the value was 2.28. Consider RQLAYSHVGTPDYIAPEVFMQTGY [T7H], for which the protein stability index amounted to 2.44. For RQLAYSAVGTPDYIAPEVFMQTGY [T7A] the value was 2.76; for RQLAYSDVGTPDYIAPEVFMQTGY [T7D], 2.26; for RQLAYSTVGTPDYIAPVVFMQTGY [E17V], 1.83. Next, RQLAYSTVGTPDYIAPPVFMQTGY [E17P]: 2.12.

As for RQLAYSTVGTPDYIAPYVFMQTGY [E17Y], the protein stability index was 1.78. As for RQLAYSTVGTPDYIAPAVFMQTGY [E17A], the protein stability index was 2.08. Next, RQLAYSTVGTPDYIAPIVFMQTGY [E17I]: 2.17.

Turning to RQLAYSTVGTPDYIAPEVFMQTVY [G23V], the protein stability index stood at 1.81. For RQLAYSTVGTPDYIAPEVFMQTCY [G23C], the protein stability index stood at 1.6. Next, RQLAYSTVGTPDYIAPEVFMQTEY [G23E]: 2.5; RQLAYSTVGTQDYIAPEVFMQTGY [P11Q]: 2.49. Consider RQLAYSTVGTMDYIAPEVFMQTGY [P11M], for which the protein stability index was 2.18. Regarding RQLAYSTVGTHDYIAPEVFMQTGY [P11H], the protein stability index worked out at 2.58.

With RQLAYSTVGTLDYIAPEVFMQTGY [P11L], the protein stability index worked out at 2.2. RQLAYSTVGTSDYIAPEVFMQTGY [P11S]: the protein stability index was determined as 2.63. Next, RQLAYSTVGTEDYIAPEVFMQTGY [P11E]: 3.13. For RQLVYSTVGTPDYIAPEVFMQTGY [A4V] the value was 2.02; for RQLDYSTVGTPDYIAPEVFMQTGY [A4D], 2.38.

For the variant RQLSYSTVGTPDYIAPEVFMQTGY [A4S], the protein stability index is 2.65. Next, RQLIYSTVGTPDYIAPEVFMQTGY [A4I]: 1.77; RQLCYSTVGTPDYIAPEVFMQTGY [A4C]: 2.14. For RQLMYSTVGTPDYIAPEVFMQTGY [A4M] the value was 2.6. For RQLAYSTVGTPDMIAPEVFMQTGY [Y13M] the value was 2.57.

In the case of RQLAYSTVGTPDSIAPEVFMQTGY [Y13S], the protein stability index is 4.05. On to RQLAYSTVGTPDYIAPEVIMQTGY [F19I], for which the protein stability index turned out to be 2.51. As to RQLAYSTVGTPDYIAPEVPMQTGY [F19P], the protein stability index is 3.47.

As for RQLAYSTVGTPDYIAPEVKMQTGY [F19K], the protein stability index is 3.12.

In the case of RQLAYSTVGTPFYIAPEVFMQTGY [D12F], the protein stability index was found to be 1.98. RQLAYSTVGTPRYIAPEVFMQTGY [D12R]: the protein stability index turned out to be 3. For RQLAYSTVGTPDYIANEVFMQTGY [P16N] the value was 2.81; for RQLAYSTVGTPDYIASEVFMQTGY [P16S], 2.16.

Take RQLAYSTVGTPDYIAMEVFMQTGY [P16M]: the protein stability index was 2.13. For RQLAYSTVGTPDYIAPEVFMFTGY [Q21F] the value was 2.21; for RQLAYSTVGTPDYIAPEVFMDTGY [Q21D], 3.06; for RQLAYSTVGTPDYIAPEVFMNTGY [Q21N], 2.26.

Turning to RQLAYSTVGTPDYIAPEVFMCTGY [Q21C], the protein stability index amounted to 1.75. For RQLAYSTVGTPDYIAPEVFMKTGY [Q21K] the value was 2.66. As for RQLAYSTVGTPDYIMPEVFMQTGY [A15M], the protein stability index was found to be 2.19. For RQLAYSTVGTPDYIWPEVFMQTGY [A15W] the value was 1.58; for RQLAYSTVGTPDYIGPEVFMQTGY [A15G], 3.12; for NQLAYSTVGTPDYIAPEVFMQTGY [R1N], 2.82. For IQLAYSTVGTPDYIAPEVFMQTGY [R1I] the value was 1.15; for DQLAYSTVGTPDYIAPEVFMQTGY [R1D], 2.71. Turning to HQLAYSTVGTPDYIAPEVFMQTGY [R1H], the protein stability index amounted to 2.38. LQLAYSTVGTPDYIAPEVFMQTGY [R1L]: the protein stability index turned out to be 1.87. Take QQLAYSTVGTPDYIAPEVFMQTGY [R1Q]: the protein stability index was determined as 2.47.

As to RQLAYSTVGTPDYIAPEVFMQTGW [Y24W], the protein stability index was 2.33. For RQLAYSTVGTPDYIAPEVFMQTGK [Y24K], the protein stability index was 3.38. As for RQLAYSTVGTPDYIAPEVFMQTGN [Y24N], the protein stability index is 3.35.

As for RKLAYSTVGTPDYIAPEVFMQTGY [Q2K], the protein stability index was 2.54. Next, RNLAYSTVGTPDYIAPEVFMQTGY [Q2N]: 2.16; RMLAYSTVGTPDYIAPEVFMQTGY [Q2M]: 2.03; RQLATSTVGTPDYIAPEVFMQTGY [Y5T]: 2.51. Next, RQLAHSTVGTPDYIAPEVFMQTGY [Y5H]: 3.07; RQLAYSTVGNPDYIAPEVFMQTGY [T10N]: 2.05. Next, RQLAYSTVGEPDYIAPEVFMQTGY [T10E]: 2.89. Turning to RQLAYSTVGKPDYIAPEVFMQTGY [T10K], the protein stability index came out at 2.17. For RQLAYSTVGGPDYIAPEVFMQTGY [T10G] the value was 3.01; for RQYAYSTVGTPDYIAPEVFMQTGY [L3Y], 2.41.

Regarding RQQAYSTVGTPDYIAPEVFMQTGY [L3Q], the protein stability index was found to be 2.61. Next, RQIAYSTVGTPDYIAPEVFMQTGY [L3I]: 2.24; RQRAYSTVGTPDYIAPEVFMQTGY [L3R]: 3.09.

Regarding RQMAYSTVGTPDYIAPEVFMQTGY [L3M], the protein stability index was 2.72. In the case of RQEAYSTVGTPDYIAPEVFMQTGY [L3E], the protein stability index came out at 3.15. For RQLAYSTVMTPDYIAPEVFMQTGY [G9M] the value was 2.59; for RQLAYSTVQTPDYIAPEVFMQTGY [G9Q], 2.77. With RQLAYSTVPTPDYIAPEVFMQTGY [G9P], the protein stability index was 2.6. Next, RQLAYSTVYTPDYIAPEVFMQTGY [G9Y]: 2.9; RQLAYSTVGTPDYIAPEVFYQTGY [M20Y]: 2.89; RQLAYSTVGTPDYIAPEVFHQTGY [M20H]: 2.25. On to RQLAYSTVGTPDYIAPEVFGQTGY [M20G], for which the protein stability index was found to be 2.53.

For RQLAYSTVGTPDYIAPECFMQTGY [V18C], the protein stability index was found to be 2.58.

For the variant RQLAYSTVGTPDYIAPEEFMQTGY [V18E], the protein stability index was determined as 3.62. For RQLAYSTVGTPDYIAPEQFMQTGY [V18Q] the value was 3.1; for RQLAYSTVGTPDYIAPEPFMQTGY [V18P], 2.31; for RQLAYITVGTPDYIAPEVFMQTGY [S6I], 1.78.

As for RQLAYATVGTPDYIAPEVFMQTGY [S6A], the protein stability index stood at 1.95.

On to RQLAYNTVGTPDYIAPEVFMQTGY [S6N], for which the protein stability index stood at 2.46. Next, RQLAYGTVGTPDYIAPEVFMQTGY [S6G]: 2.32; RQLAYKTVGTPDYIAPEVFMQTGY [S6K]: 2.43.

RQLAYPTVGTPDYIAPEVFMQTGY [S6P]: the protein stability index was determined as 2.44. In the case of RQLAYSTVGTPDYIAPEVFMQQGY [T22Q], the protein stability index was determined as 3.04. For the variant RQLAYSTVGTPDYIAPEVFMQMGY [T22M], the protein stability index is 2.48.

As for RQLAYSTVGTPDYIAPEVFMQYGY [T22Y], the protein stability index turned out to be 2.47.
